Results from patent US10654896B2, “FoxP3-binding peptides and uses thereof” (FUNDACIÓN PARA LA INVESTIGACIÓN MÉDICA APLICADA, priority 2016, dated 2020).
pIC50: −log10 of the molar value. Where a SMILES comes first, the peptide text is derived from it. Where no end group is shown, it is not given here. [ ]: non-standard residue; d: D form.

Columns and labels:
[1] = molecular target: T1, human FOXP3 (FOXP3-6His) (Homo sapiens, UniProt Q9BZS1); experiment: Peptide binding to FOXP3 by surface plasmon resonance (SPR); conditions: peptides 1-20 μM; ratio to p60 (SEQ ID NO: 1)
T1 construct: 6xHis (C); made in house; host or cells: E. coli BL21 (DE3)
T1 sequence (Q9BZS1 1-431): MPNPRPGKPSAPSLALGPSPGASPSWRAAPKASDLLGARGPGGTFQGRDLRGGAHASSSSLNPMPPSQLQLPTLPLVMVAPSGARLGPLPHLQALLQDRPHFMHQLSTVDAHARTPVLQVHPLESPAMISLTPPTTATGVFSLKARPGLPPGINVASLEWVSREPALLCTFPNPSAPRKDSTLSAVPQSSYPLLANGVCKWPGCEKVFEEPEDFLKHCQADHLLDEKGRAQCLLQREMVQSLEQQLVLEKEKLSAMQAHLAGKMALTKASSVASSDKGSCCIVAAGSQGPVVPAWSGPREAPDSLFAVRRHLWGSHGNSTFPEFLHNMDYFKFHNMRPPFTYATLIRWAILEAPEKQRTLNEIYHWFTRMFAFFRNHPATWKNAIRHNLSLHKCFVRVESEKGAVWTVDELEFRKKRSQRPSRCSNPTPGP
Excerpt: (§1) Plasmid pET20b FOXP3-His was generated to produce the human FOXP3 tagged with 6 histidines at the C terminus of the protein. Briefly, plasmid pDEST15-FOXP3 (provided by Dr. Casal, Madrid, Spain) was used as template to amplify FOXP3 by PCR using the primers Upper FOXP3 Ndel catatgcccaaccccaggc (SEQ ID NO: 55) and Lower FOXP3 […] (SEQ ID NO: 56). The resulting fragment was subcloned in pET20b at Ndel and NotI sites. pET45b His-Runx1 was obtained by PCR of activated human CD4 T cells obtained from healthy volunteers (after the signature of an informed consent) using the primers Upper Runx1 atgcgtatccccgtagatg (SEQ ID NO: 57) and Lower Runx1 […] (SEQ ID NO: 58) and the fragment was cloned in pcDNA3.1. Then, pET45b and pcDNA3.1-Runx1 were digested with BamHI and NotI and ligated to obtain pET45b-Runx1. Plasmids were used to transform BL21 cells (DE3; Novagen, Schwalbach, Germany) for the expression of the recombinant protein. The transformed BL21 cells were grown in LB medium at 37° C. (1 liter of final culture medium) (with ampicilin 0.1 mg/ml). Once the OD of the culture was between 0.5 and 1.0, IPTG (0.4 mM, final concentration) was added. Bacteria were then cultured overnight in agitation and centrifuged for 10 min at 8000 rpm. Cell pellet was then resuspended in 4 ml Tris-HCl 0.1 M and frozen at −80° C. Cell pellet was then thawed and incubated with lisozyme (25 KU) and a protease inhibitor cocktail for 15 min at 30° C. before cell lysis induced with a French-press. The resultant pool was then centrifuged during 20 min at 11.000 rpm). The recombinant protein was purified from the soluble fraction of French-press cell extracts by affinity chromatography (Histrap, Pharmacia) following manufacturer's instructions and using an FPLC platform (AKTA, Pharmacia). Plasmid pDEST15-FOXP3 encoding the fusion protein GST-FOXP3 (GST fused to the isoform A from human FOXP3 gene), was transformed into BL21 cells for the expression of the recombinant protein. GST-FOXP3 protein was purified from the soluble fraction of cell extracts obtained, as described above, by affinity chromatography (GSTrap; Amersham, Piscataway, N.J.) using a fast protein liquid chromatography platform (AKTA; Amersham) following manufacturer's instructions. The eluted proteins were desalted using Hitrap desalting columns (Pharmacia) and analyzed by SDS-PAGE using Coomassie blue (Bio-Safe Coomassie reagent; Bio-Rad, Hercules, Calif.) and by Western blot.
Screening of peptide binding to FOXP3 was performed by surface plasmon resonance (SPR) using ProteOn XPR36 (Bio-Rad, Hercules Calif., USA) optical biosensor. Recombinant protein FOXP3-6His was produced and purified from E. coli as disclosed in previous section and was immobilized covalently onto a GLM sensor chip (176-5012, Bio-Rad) using sulfo-NHS and EDC (Bio-Rad) coupling reagents and the manufacturer's instructions. After protein immobilization, chip surface was treated with ethanolamine to deactivate the excess of reactive esters.
Individual solutions of the peptides to be tested (1-20 μM) were injected by triplicate in running buffer (Phosphate buffered saline, 0.005% (v/v) Tween 20, pH 7.4) at a flow of 30 μl/min. The interspot signal (obtained in the chip surface not immobilized with protein) was used as reference. The results are summarized in Table 6 below as the ratio Peptide of the invention/p60.

[2] = molecular target: T2, FOXP3/Runx1 heterodimerization (Homo sapiens, UniProt Q9BZS1); experiment: FOXP3/Runx1 heterodimerization inhibition (Alphascreen); type: biochemical; conditions: for Foxp3-Runx1 Inhibition % inhibition (100 μM): peptide 100 μM
T2 construct: made in house; host or cells: E. coli BL21 (DE3)
T2 sequence (Q9BZS1 1-431): T1 sequence (Q9BZS1 1-431)
Excerpt: as §1
(§2) It has been described that dimerization of FOXP3 is required for its function as a transcriptional regulator. Moreover, interaction between FOXP3 and the transcription factor Runx1, is crucially required for normal hematopoiesis including thymic T-cell development, but also for Treg suppressor activity (Reviewed in Lozano et al, Front Oncol. 2013, 3:294). Both activities are mediated by the intermediate region of Foxp3, which is the area of interaction between P60 and Foxp3. Thus, we studied the effect of P60 and their mutants on the FOXP3/Runx1 heterodimerization, as well as FOXP3/FOXP3 homodimerization by Alphascreen technology according to the manufacturer's instructions (Perkin Elmer, Benelux). AlphaScreen™ is a bead-based technology that is designed to measure the proximity of donor and acceptor beads conjugated to biomolecules of interest.
To measure Foxp3-Runx1 interactions, Foxp3-GST and […] proteins were used.
Recombinant Runx1 expressed in E. Coli with a hexa-histidine tag (obtained as disclosed in section (1) above) was captured by nickel chelate acceptor beads following manufacturer's instructions, whereas the recombinant FOXP3 expressed with a GST tag was captured by glutathione donor beads (Perkin Elmer) following manufacturer's instructions. His-tagged Runx1 (46 nM final concentration) was incubated with 100 nM GST-FOXP3 and the peptides to be tested (added at different concentrations from 1 to 100 μM) for 1 h at room temperature. […]

[3] = molecular target: T3, FOXP3/FOXP3 homodimerization (Homo sapiens, UniProt Q9BZS1); experiment: FOXP3/FOXP3 homodimerization inhibition (Alphascreen); type: biochemical; conditions: for Dimerization inhibition % inhibition (100 μM): peptide 100 μM
T3 construct: made in house; host or cells: E. coli BL21 (DE3)
T3 sequence (Q9BZS1 1-431): T1 sequence (Q9BZS1 1-431)
Excerpt: as §1, §2
To measure FOXP3/FOXP3 homodimerization, recombinant Foxp3 was expressed with a Histine tag as disclosed in section (1) above, and captured by Nickel chelate Acceptor beads (Cat. AL108 Perkin Elmer) following manufacturer's instructions. The other version of recombinant FOXP3, expressing a GST tag (prepared as disclosed in section (1) above), was captured by Glutathione Donor beads (Perkin Elmer Cat. 6765300), following manufacturer's instructions. When the two proteins interacted together, the Donor and Acceptor beads come into proximity. Excitation of the Donor beads results in emission of light from the Acceptor beads. […]

[4] = tested on: murine Treg (CD25+ T cells); experiment: In vitro Treg suppression assay ([3H]-thymidine, anti-CD3); type: cell-based, BALB/c mice
Method: Spleen was harvested from BALB/c mice (Harlan Laboratories) and homogenized with a 1-ml syringe through a 100-μm cell strainer into a 50-ml conical tube and rinsed two times with PBS (Calcium free) to recover all cells. Cell homogenate was centrifuged at 300×g for 10 min and resuspended homogenate in 1 ml ACK Lysis buffer solution per spleen. Gently swirled for 2 min and then the reaction was quenched by adding 12 ml of PBS.
Cells were centrifuged at 300×g for 10 min and purification of CD25− and CD25+ cells was carried out using magnetic beads (Miltenyi, CD25 microbead kit MOUSE, Ref 130-091-072)), following manufacturer's instructions. After labelling the cells, they were purified using Automacs-Pro device following manufacturer's instructions. Negative fraction corresponded to CD25− cells, which was used as effector Tconv cells. Positive fraction corresponded to CD25+ T cells that was used as Treg cells. Flow cytometry using anti-CD25-APC labeled and anti-CD4-FITC labelled antibodies was used to confirm the purity of isolated cells. Foxp3 expression was analyzed using the anti-Foxp3 staining antibody labelled with APC according to manufacturer's instructions (eBioscience). Purified cells were washed, resuspended in culture medium and diluted in T-cell culture medium (RPMI 1640, supplemented with 10% Fetal bovine serum and antibiotics) at a concentration of 2×10^5/ml (for Tregs) and 2×10^6/ml (for Tconv), for the assay (See below)
The first in vitro assays to measure regulatory T-cell (Treg) function were described by two groups over a decade ago. […] With this knowledge, it was shown that CD4+CD25+ T cells could potently suppress the proliferation of activated CD4+CD25− and CD8+ T cells when the populations were cocultured in vitro. The following protocol describes a basic type of in vitro Treg suppression assay where Treg function is measured in the absence of antigen-presenting cells (APCs). In this protocol, activation is mediated by anti-CD3 antibodies and includes only two cell types, the target Tconv and Tregs. In this protocol, the experiment is setup in a 96-well round-bottom plate in a total volume of 200 μl. All reagents are prepared at four times their desired final concentration and added to assay in 50 μl such that the total volume is 200 μl, thus obtaining the desired final concentration of reactives. Purified Tregs and Tconv prepared as described above were diluted and adjusted in T-cell culture medium to 2×10^5/ml and 2×10^6/ml, respectively. In round-bottom 96-well plate, Tregs and Tconv were added in 50 μl of culture media each (RPMI 1640, supplemented with 10% Fetal bovine serum, and antibiotics). Anti-CD3 antibody was added in 50 μl (final concentration will be 2.5 μg/ml) as a stimulus to induce T cell proliferation. 50 μL of each one of the peptides to be tested were added in the corresponding wells at a concentration of 100 μM and those which provided the best results were tested again at lower concentrations to determine the IC50 value. The final volume was 200 μl in all wells. Tconv alone, Tconv plus anti-CD3, Tconv+anti-CD3+ Treg or Tconv+anti-CD3+Treg+peptides were tested by quadruplicate. Tconv plus anti-CD3 with no Treg was used to determine maximum proliferation of Tconv whereas Tconv+anti-CD3+ Treg was used to determine Treg inhibition. Plates were incubated at 37° C., 5% CO2 for 72 h and then pulsed with 0.1 μCi [^3H]-thymidine (in 25 μl of culture medium per well). After 8 h of incubation, cell cultures were harvested with a cell harvester (Perkin Elmer) and using unifilter plates. Plates were then dried at 50° C., and scintillation reagent (25 μl)(Microscint, Perkin Elmer) was added to each well. Counts per minute (cpm) were determined with a direct beta counter (TopCount, Perkin Elmer).
The results of in vitro Treg suppression assays are most commonly reported as cpm when [^3H]-thymidine is incorporated into proliferating cells. […]

[5] = tested on: CT26 tumor cells; experiment: Anti-tumor vaccination experiment (AH1 in IFA), CT26 challenge; type: in vivo, BALB/c; conditions: 10 nanomol/mice i.p. daily during 10 days after AH1/IFA; day 30 after injection of CT26
Method: For anti-tumor vaccination experiments, BALB/c animals immunized with 50 nanomol/mice of peptide AH1 emulsified in incomplete Freund adjuvant (IFA) (Casares et al., 2010, supra), were treated intraperitoneally with 10 nanomol/mice of the indicated Treg inhibitory peptide SEQ ID NO: 51 of the invention or with saline daily during 10 days. At day 10, mice were injected s.c. with 10^6 CT26 tumor cells. Tumor size was monitored twice a week with a calliper and it was expressed according to the formula V=(length×width2)/2. Mice were sacrificed when tumor size reached a volume greater than 4 cm^3.

Compound: CSCC[C@H](NC(=O)[C@H](C)NC(=O)[C@H](Cc1ccccc1)NC(=O)[C@H](Cc1ccccc1)NC(=O)[C@@H]1CCCN1C(=O)[C@H](Cc1c[nH]c2ccccc12)NC(=O)[C@H](CCSC)NC(=O)[C@H](CCCCN)NC(=O)[C@H](CCCNC(=N)N)NC(=O)[C@H](Cc1ccccc1)NC(=O)[C@H](CO)NC(=O)[C@H](CCC(N)=O)NC(=O)[C@H](Cc1ccccc1)NC(=O)[C@@H](C)NC(=O)[C@H](CCCNC(=N)N)NC(=O)CNC(C)=O)C(N)=O [compound 14] (Ac-GR[dA]FQSFRKMWPFFAM-NH2; C-terminus assumed)
- Binding to Foxp3 Ratio binding Peptide/p60 (fold change) [1]: 3.6 fold change
- inhibition at 2.5 µM ([2]; read-out: Foxp3-Runx1 Inhibition % inhibition (2.5 μM)): 80%
- inhibition at 20 µM ([3]; read-out: Dimerization inhibition % inhibition (20 μM)): 90%

Compound: 9 (RWFQSFRKMWPFFAM) [compound 9]
- Binding to Foxp3 Ratio binding Peptide/p60 (fold change) [1]: 1.4 fold change
- Treg inhibition - % inhibition (100 μM) ([4]; peptide 100 μM): 210.0%

Compound: RAFQAFRKMWPFFAM (cyclo(R[dA]FQAFRKMWPFFAM); also: R1 and R2 form a birradical linker which is -C(=O)-) [SEQ ID NO: 51, head-to-tail cyclic peptide]
- effect on growth of CT26 colon cancer tumor [5]: prevents the growth of tumor

Compound: 5 (RAFQSFRKMWPFFAM) [compound 5]
- Binding to Foxp3 Ratio binding Peptide/p60 (fold change) [1]: 4.1 fold change
- Foxp3-Runx1 Inhibition % inhibition (100 μM) [2]: 76.0%
- Dimerization inhibition % inhibition (100 μM) [3]: 74.3%

Compound: 2 (RDFQSFRKMWPFFAM-NH2; not fully specified (N-terminus)) [compound 2]
- Binding to Foxp3 Ratio binding Peptide/p60 (fold change) [1]: 2.4 fold change
- Dimerization inhibition % inhibition (20 μM) ([3]; peptide 20 μM): 80 (20 μM) %

Compound: 30 (RDFQSFRKMWAFFAM) [compound 30]
- Binding to Foxp3 Ratio binding Peptide/p60 (fold change) [1]: 1.1 fold change
- Foxp3-Runx1 Inhibition % inhibition (100 μM) [2]: 73.9%
- Dimerization inhibition % inhibition (100 μM) [3]: 81.3%

Compound: Ac-GRAFQAFRKMWAFFAM-NH2 (C-terminus assumed) [compound 45]
- Binding to Foxp3 Ratio binding Peptide/p60 (fold change) [1]: 8.0 fold change
- pIC50 [4]: 5.52

Compound: 19 (RDFQAFRKMWPFFAM) [compound 19]
- Binding to Foxp3 Ratio binding Peptide/p60 (fold change) [1]: 1.1 fold change
- Foxp3-Runx1 Inhibition % inhibition (100 μM) [2]: 74.7%
- Dimerization inhibition % inhibition (100 μM) [3]: 89.0%
